Paper PMC3981788, “Allele-specific Characterization of Alanine: Glyoxylate Aminotransferase Variants Associated with Primary Hyperoxaluria” (PLoS ONE, 2014)

Target: the molecule itself
Assay: SEC; data not shown; 10 uM AGTmi E274D with 100 uM PLP, Sephacryl S-300 10/600 column, 100 mM potassium phosphate buffer pH 7.4, elution volume compared with molecular weight standards

B1: alanine: glyoxylate aminotransferase, minor allele variant, E274D (enzyme, human)
chain: MASHKLLVTPLKALLKPLSIPNQLLLGPGPSNLPPRIMAAGGLQMIGSMSKDMYQIMDEIKEGIQYVFQTRNPLTLVISGSGHCALEAALVNVLEPGDSFLVGANGIWGQRAVDIGERIGARVHPMTKDPGGHYTLQEVEEGLAQHKPVLLFLTHGESSTGVLQPLDGFGELCHRYKCLLLVDSVASLGGTPLYMDRQGIDILYSGSQKALNAPPGTSLISFSDKAKKKMYSRKTKPFSFYLDIKWLANFWGCDDQPRMYHHTIPVISLYSLRDSLALIAEQGLENSWRQHREAAAYLHGRLQALGLQLFVKDPALRLPTVTTVAVPAGYDWRDIVSYVMDHFDIEIMGGLGPSTGKVLRIGLLGCNATRENVDRVTEALRAALQHCPKKKL
notes: alanine: glyoxylate aminotransferase (AGT), human, minor allele (P11L, I340M) with the PH1-associated mutation E274D; SEC was run in the presence of 100 uM PLP (holo form); E274D was found in patients on the minor allele; also called AGTmi E274D; AGTmi^E274D; source: bacteria (pET30a), purified
In the case of B1, the “stoichiometry N” value is reported as 2.
